In the supplement of paper PMC12042874:
± gives the uncertainty stated by the source.

Experiment: amyloid nucleation score (Sup35N fusion, yeast selection) (log enrichment); library NNK1; higher = more nucleation; inactive = no reads after selection
Summary of the method: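 Peptides of 20 random codons fused to Sup35N were expressed in psi-negative yeast, induced 24 hours with 100 μM copper sulfate, then grown 7 days at 30°C on medium lacking adenine and uracil. Input and output plasmid inserts were Illumina-sequenced. Nucleation score is the DiMSum log enrichment of output over input reads, centred on the mode score of non-aggregating sequences, excluding sequences with under 100 input reads. Random libraries had three technical output replicates.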

Substance | amyloid nucleation score
RDFRYCFRCVIINMHRDHFQ | 3.99 ± 0.06
NSMIVAHKLDCACPASAKDR | 4.94 ± 0.053
FGSRVVGRCVETSHSILFVL | 0.58 ± 1.1
SNVMWFYSWMWVRVTRRTCL | 1.71 ± 0.49
RGLSNA | 0.664 ± 0.48
YTCLHGGSGVPPYLFQEHYS | 0.193 ± 0.39
VVLPGYMLNGFPNESNLIWP | -1.22 ± 0.49
QPSGLGAECYM | 0.423 ± 1.4
MEHYLACIWITHVCF | 0.117 ± 1.1
VRSNGYHVMFNTINRVWDTV | 0.672 ± 0.44
VCLSC | 2.03 ± 0.41
MFIVYRMDLEFM | 1.64 ± 0.51
VCFVFMS | -0.211 ± 0.41
MMTGFNNIPTIKQLGSCAHY | 0.291 ± 0.97
CGRTYRGLS | 0.959 ± 0.72
LSMSCENFHLTQSSEGCSRV | 0.19 ± 0.51
IVRSAVRLELSGLPRCQGIS | -0.065 ± 0.95
SVFELLCSPQSVNRTFNTPY | 1.09 ± 0.36
EFPIHQERAPSTTIHPSVSC | 0.765 ± 0.9
TTCVELYVWRGWRGAGGTGV | -1.41 ± 2.4
IWNSVARFRYSSMGFVVSAV | -0.702 ± 1.7
DISMLRKKSCKHTVNMMSL | -0.431 ± 0.27
WYAGFTGRFRSLFFIISIFG | -0.529 ± 1
LNISMFHSNSSHTTEEVTHH | 1.32 ± 0.19
HRILRESRAGRF | -0.396 ± 0.36
GKSCGHFWGRLNEGGQKLRV | -0.772 ± 0.64

Substance | amyloid nucleation score
VSNFLSYNRWAHHGLFNSSF | 0.553 ± 0.53
RKRRVSSLPEMGHSGSEYIG | 0.412 ± 0.67
YSDLSVHHYFWHQFRQKCDR | 2.01 ± 0.21
GTFVEISRYIDGCHLVFGNR | 2.38 ± 0.16
KSESDL | inactive
RYGGRCNTR | 0.016 ± 1.7
SLNAMFIFLLAYKRGVYEYM | 1.25 ± 0.24
LIQWENGTH | -0.672 ± 0.34
HGSVRSLSYRLVSLYLSRMC | 0.748 ± 0.45
SVVSFINLIASYFRELVGAV | 0.225 ± 0.95
YCGSTWASVWGPIICPRYRA | 0.208 ± 0.33
EILFFEFFKNEFLYCHKMLC | 0.902 ± 0.4
NDNGVMLVLCEGMY | 0.014 ± 0.32
RFYIMYLSGCAKTSFCGFVS | 6.4 ± 0.079
RFAVCTNFANIFRLQEDQIR | 0.481 ± 0.33
DYWRHSHVLHSPTKRKNRLV | 0.223 ± 0.34
IKWWKLCGVVRIGNNCLRYL | 0.64 ± 0.72
IWYYSSAQLDCFPYNSTMQE | 0.8 ± 0.93
VSFTSIHMVIEDLRIKLNPA | -0.426 ± 0.71
RLVSMEVCCTARLPCPYLLK | 2.09 ± 0.25
IYASSLTDGFTVVWCLNQY | 5.05 ± 0.07
YATTD | -0.776 ± 0.58
GVGDTNCSEL | 0.178 ± 0.33
CFPSSVFVGCIFF | 7.532 ± 0.044
DWFWWKIVGWVRNSNMRSYS | 0.946 ± 0.6
YVVLASVMLITYVRA | 0.786 ± 0.38

Substance | amyloid nucleation score
ANFAIFWSFYRGWCSFKIQS | 0.871 ± 0.5
GDIALS | -0.292 ± 0.41
RWIPQNMHQLWKASDGNERM | -0.697 ± 0.41
DSSYKWWTYFWGA | -0.267 ± 0.42
FFELSVYH | -0.174 ± 0.65
SLYRDYVRFGWLVRCGNGHD | 0.078 ± 0.23
SSLGNEFIFDSFGNK | -0.772 ± 0.73
YLMFFVYCVRLRYLSWALSQ | -1.35 ± 1.9
SFCVRQSTVFLMMSWECFRY | 1.19 ± 0.8
ILSLNCFYRTWRLEMNKSYK | 1.94 ± 0.52
CLEFLG | -0.526 ± 0.49
TLLWFNEFILSGPNFRIGVV | 0.857 ± 0.58
RSLLHCYHNKWMSVRTAFSP | 0.642 ± 0.66
FDLGHCIDSRRPGLCVMVLV | 0.035 ± 0.34
MCASASTSKMLVWVWTPYFG | 2.14 ± 0.13
SFYYWHPIALVSMVYK | 5.89 ± 0.073
GPRVSPVKFIVRLGQVNLDR | 0.448 ± 0.61
MAKSGNEI | 0.062 ± 0.79
YMIWTIFNMVSIGRPQFLRL | -0.716 ± 0.56
ESVLWVFYV | 0.1 ± 0.41
WFSWLVGEILCWCGGWVRSK | 0.404 ± 0.51
VFESWKFELRVWIVVTFLHG | 0.21 ± 0.52
EFRMFTLKLR | 1.13 ± 0.65
IFLIMKNRTSILRPTGFLVS | -0.402 ± 0.49
WRIMNHNVLLMLVRLGSILL | 1.18 ± 0.28
ILVGTWSLGSRAVEGNNWDH | -0.357 ± 0.49

Substance | amyloid nucleation score
QSYTLYMMSLFKS | -0.34 ± 0.55
MLSYVRIGSDQDVVWSDLQR | 2 ± 0.1
YKSVLHSSRSGGAYGVVKSL | -0.038 ± 0.45
GRAFG | -0.557 ± 2.1
VWIALFDVTDDMSARTDIWS | -0.876 ± 0.74
YCSHMLRMYFSEDRPLAQLM | -0.399 ± 0.74
TYANGGALALAIVAVKC | -0.398 ± 0.64
NNRCPCYSILWNRWRNKVA | inactive
RNLLNFFKISDTSTALDLLY | -0.728 ± 0.52
YMILLSLGVFFTPVPDYFAQ | -0.385 ± 0.68
GRLVVGIREGIIS | 0.058 ± 0.35
ADDACVSET | inactive
LYCRNRCRACCKRFTFK | inactive
VIGLVLARLYFVQIEVLLHR | 1.24 ± 0.61
FHVIGSARTLVVAQYLK | inactive
ITLNWKIAEFSRCTVQLQNL | 6.324 ± 0.061
VFIQMGHELDFQCEE | 0.527 ± 0.63
CFLYNSFYILDISELLQGST | 4.81 ± 0.049
YLWSSCLGGDSANWLLY | 0.714 ± 0.32
VSSHSMGFIVSVVMTCEYRS | 1.23 ± 0.7
LLRVAFLKRYFSTIFCVLLR | -0.716 ± 0.53
FYGQRPKMLCPTRAEDLTKA | -0.269 ± 0.88
VPSSTVVDHSIYRGDMPSFA | 0.163 ± 0.41
LVENLWTLRRRLVGALF | 0.31 ± 0.4
CCVNVPIFRRKFGTCSCKAW | 0.065 ± 0.93
RRIFRYSMNNLNVFVYNRFP | -0.277 ± 0.51

Substance | amyloid nucleation score
LEHYRVVLLG | -0.535 ± 0.43
SYRPFLMLGAQLQPYRVSGS | 1.32 ± 0.6
NINFGVVSYSVYMLL | 6.649 ± 0.054
KVFGTRPVRYETCRFLRLRS | -0.013 ± 0.34
RSMGKIMIRENQRSLVMLSH | 0.522 ± 0.57
DMNILVLLMGDVVRLATTEW | 2.68 ± 0.17
MFRWHVLGKKITP | -0.067 ± 0.37
GLLRAA | 0.296 ± 0.27
RALLMTMKFNKMGSFNIESN | 1.77 ± 0.2
VFRPGRSSDCNLSMLVQRVW | 4.18 ± 0.088
AKSELHYSRFYFTLGVMKSL | -0.138 ± 0.48
STVREFSVVGPYVTGSVAGR | 0.383 ± 0.71
LGLGDGLLVRFNKFCGLMGR | -0.153 ± 1.2
RFRVCCNRSKRGGYGPNVER | -0.363 ± 0.67
MDWYIVYRPAYTLLCRIHVR | 1.16 ± 0.39
LLKENWFNCSLWHDIVGISM | -0.596 ± 0.59
IYVWKTQ | -0.242 ± 0.5
CFPMIQMEHSIKS | -0.449 ± 1.1
SSLPRPPMPKWSDV | 0.125 ± 0.88
QCRERLYPHPGLI | 1.01 ± 0.37
NRQSNSVVYNARQETFIRHL | 3.39 ± 0.14
YRTSWEAVQGWSFS | -1.64 ± 1.3
